Assay results reported in paper PMC2808764.

Target: GST-βPIX (UniProt Q14155)
Assay: pull-down

## His-tagged MYO18A-CB (His-MYO18A-CB) (domain or fragment)
  fold amount pulled down, against GST-GIT1: 2 fold
